Measurements published in paper PMC9897464 (2022).

T1: biotinylated Cg1735ΔCD (residues 20 to 386) (Corynebacterium glutamicum ATCC13032, biotin (EZ-Link NHS-PEG4-Biotin, 20 molar excess; sites not stated))
T1 chain: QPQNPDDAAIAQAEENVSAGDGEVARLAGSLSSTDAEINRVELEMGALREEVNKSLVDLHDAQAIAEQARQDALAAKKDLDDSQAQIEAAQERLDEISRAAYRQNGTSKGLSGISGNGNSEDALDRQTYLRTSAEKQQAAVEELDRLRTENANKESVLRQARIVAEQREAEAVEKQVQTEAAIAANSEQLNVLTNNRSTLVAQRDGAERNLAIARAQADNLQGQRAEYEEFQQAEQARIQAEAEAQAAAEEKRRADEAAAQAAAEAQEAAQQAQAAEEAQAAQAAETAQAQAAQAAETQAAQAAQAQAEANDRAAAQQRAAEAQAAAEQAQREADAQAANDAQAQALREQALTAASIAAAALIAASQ

B1: Cg1735CD (catalytic domain, residues 460 to 600) (domain or fragment)
chain: DRSAQIETVIARAMSQLGVQYAWGGGNANGPTLGIRDGGVADSYGDYNKVGFDCSGLTLYAFAGVGISLPHYTGYQYQHGTKVSPSEMQRGDLIFYGPGASQHVAIYLGDGQMIEAPNSGSVVKISPVRWSGMTESVVRLI

Experiments:
[1] = target: biotinylated Cg1735ΔCD (residues 20 to 386) (Corynebacterium glutamicum ATCC13032); assay: BLI; biotinylated Cg1735ΔCD immobilised on streptavidin biosensors; Cg1735CD 20 to 0.3125 μM or Cg1604 200 to 3.125 μM; 25 °C; HEPES 25 mM pH 7.5, NaCl 150 mM, glycerol 5%, BSA 1 mg/mL; steady-state, one-site model; apparent Kd
[2] = target: T1, biotinylated Cg1735ΔCD (residues 20 to …); assay: BLI
[3] = target: His_SUMO_Cg1735CC1 (CC1 domain, residues 20 to 238) (Corynebacterium glutamicum ATCC13032); assay: BLI; His_SUMO_Cg1735CC1 immobilised on Ni-NTA biosensors; Cg1735CD 20 to 0.3125 μM; 25 °C; HEPES 25 mM pH 7.5, NaCl 150 mM, glycerol 5%, BSA 1 mg/mL; steady-state, one-site model; apparent Kd

| Molecule | Kd [1] [µM] | Kd [2] [nM] | Kd [3] [nM] |
| --- | --- | --- | --- |
| Cg1604 (globular periplasmic domain, residues 36 to 295) (domain or fragment) | 56 | – | – |
| B1 | – | 1900 | 1200 |
